Assay results from paper PMC2917047.

Target: PDE6αβ catalytic dimer of rod cGMP phosphodiesterase 6 (bovine) (UniProt P11541)
Experiment: SDS-PAGE with Coomassie Blue densitometry of the purified complexes

Sequence of PDE6αβ catalytic dimer of rod cGMP phosphodiesterase 6 (bovine) (P11541 whole entry, chain 1 of 2): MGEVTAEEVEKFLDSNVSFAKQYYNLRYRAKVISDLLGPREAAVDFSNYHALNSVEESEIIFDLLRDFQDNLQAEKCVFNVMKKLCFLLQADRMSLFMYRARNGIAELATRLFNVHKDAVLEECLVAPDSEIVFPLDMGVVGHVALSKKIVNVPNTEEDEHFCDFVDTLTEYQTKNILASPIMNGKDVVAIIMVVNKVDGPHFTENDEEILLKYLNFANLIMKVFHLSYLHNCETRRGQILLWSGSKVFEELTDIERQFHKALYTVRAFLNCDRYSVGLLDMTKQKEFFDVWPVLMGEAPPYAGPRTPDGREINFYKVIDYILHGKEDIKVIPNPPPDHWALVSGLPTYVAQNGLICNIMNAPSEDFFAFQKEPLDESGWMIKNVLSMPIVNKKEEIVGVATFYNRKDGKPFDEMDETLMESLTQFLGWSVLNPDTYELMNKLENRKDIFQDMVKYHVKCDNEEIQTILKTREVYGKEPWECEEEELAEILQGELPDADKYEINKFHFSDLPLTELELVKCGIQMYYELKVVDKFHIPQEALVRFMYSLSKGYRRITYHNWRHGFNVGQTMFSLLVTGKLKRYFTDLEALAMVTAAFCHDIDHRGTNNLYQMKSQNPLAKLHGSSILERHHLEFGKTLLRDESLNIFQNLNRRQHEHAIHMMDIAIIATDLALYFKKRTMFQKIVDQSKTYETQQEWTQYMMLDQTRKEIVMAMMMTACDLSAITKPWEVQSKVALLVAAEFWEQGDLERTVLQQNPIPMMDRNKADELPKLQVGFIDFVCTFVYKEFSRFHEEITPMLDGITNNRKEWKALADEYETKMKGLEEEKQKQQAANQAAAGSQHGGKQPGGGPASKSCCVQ
Sequence of PDE6αβ catalytic dimer of rod cGMP phosphodiesterase 6 (bovine) (P23439 whole entry, chain 2 of 2, further chain): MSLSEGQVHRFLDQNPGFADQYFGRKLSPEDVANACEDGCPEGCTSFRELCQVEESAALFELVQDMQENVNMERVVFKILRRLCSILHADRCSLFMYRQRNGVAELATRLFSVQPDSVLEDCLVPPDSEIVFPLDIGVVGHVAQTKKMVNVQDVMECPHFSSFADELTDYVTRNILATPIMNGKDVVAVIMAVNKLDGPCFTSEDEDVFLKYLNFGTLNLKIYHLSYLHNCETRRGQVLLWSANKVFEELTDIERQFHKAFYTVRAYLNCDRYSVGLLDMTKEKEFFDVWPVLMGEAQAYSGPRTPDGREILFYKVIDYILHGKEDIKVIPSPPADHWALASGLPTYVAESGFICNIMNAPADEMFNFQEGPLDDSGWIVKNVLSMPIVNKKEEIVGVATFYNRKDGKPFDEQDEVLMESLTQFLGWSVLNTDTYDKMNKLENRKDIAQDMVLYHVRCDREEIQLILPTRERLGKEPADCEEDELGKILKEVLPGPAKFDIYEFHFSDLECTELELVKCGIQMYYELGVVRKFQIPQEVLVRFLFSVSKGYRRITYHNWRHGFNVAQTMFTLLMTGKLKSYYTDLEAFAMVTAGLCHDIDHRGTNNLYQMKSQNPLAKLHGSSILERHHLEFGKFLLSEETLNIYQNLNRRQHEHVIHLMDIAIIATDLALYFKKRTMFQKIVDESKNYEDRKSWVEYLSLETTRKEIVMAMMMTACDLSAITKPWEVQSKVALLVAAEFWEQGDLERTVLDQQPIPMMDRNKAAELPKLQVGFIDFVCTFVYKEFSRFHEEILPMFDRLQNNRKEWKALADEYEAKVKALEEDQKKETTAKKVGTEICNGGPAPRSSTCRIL

stoichiometry N: 2
B1: PDE6γ regulatory (inhibitory) subunit of rod cGMP phosphodiesterase 6 (natural protein)
chain: MNLEPPKAEIRSATRVMGGPVTPRKGPPKFKQRQTRQFKSKPPKKGVQGFGDDIPGMEGLGTDITVICPWEAFNHLELHELAQYGII
